Numbered stars: 1 amine (or outer) side, 2 acyl side, 3 side chain; on linkers, the order of the positions; unused ones are H or OH. Bridge positions count the residues as written; N and C are the ends. Square brackets hold non-standard residues; d marks the D form. Primed or numbered codes have the meaning given here. Ends that are not written are not given here. * marks the point of attachment. TBMT(3) = 2,4,6-tris(bromomethyl)-s-triazine scaffold, C(c1nc(C[*:2])nc(C[*:3])n1)[*:1]; TBMT = 2,4,6-tris(bromomethyl)-s-triazine, C(c1nc(C[*:2])nc(C[*:3])n1)[*:1]; TBMT″ = 2,4,6-tris(bromomethyl)-s-triazine, scaffold on three Cys; TATA = O=C(CC[*:1])N1CN(C(=O)CC[*:2])CN(C(=O)CC[*:3])C1; hPhe = N[C@@H](CCc1ccccc1)C(=O)O; Pent4ynoyl = C#CCCC(=O)*
Experiments:
[1] = molecular target: T1, human CD16a F176 variant, biotinylated (human, UniProt P08637 17-208, C-terminally biotinylated); experiment: AlphaScreen competition vs mouse IgG2a
T1 construct: supplier is told for the AlphaScreen assay only; also called F Variant; FcγRIIIA F variant
T1 sequence (P08637 17-208 limits assumed, change not shown): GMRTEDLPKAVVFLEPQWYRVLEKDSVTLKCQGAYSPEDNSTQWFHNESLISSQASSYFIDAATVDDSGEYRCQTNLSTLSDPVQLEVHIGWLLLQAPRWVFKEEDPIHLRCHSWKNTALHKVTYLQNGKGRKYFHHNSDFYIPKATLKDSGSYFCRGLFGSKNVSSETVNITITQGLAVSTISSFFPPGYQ
Description: (§1) Bicyclic peptides were evaluated with a CD16a-IgG competition assay using Perkin Elmer AlphaScreen™ technology. Acceptor beads (Perkin Elmer 6762003) were chemically conjugated via a reductive amination reaction with a mouse IgG2a mAb to link via the free amines, based the manufacturer's protocol. Briefly, beads were centrifuged and resuspended in a 130 mM sodium phosphate buffered solution pH 8.0 containing 0.2 mg mAb, 20 mM NaBH₃CN (Sigma 296945) and 0.06% P20 surfactant (Cytiva Life Sciences, BR-1000-54) and incubated on a rotary shaker at 44° C. for 22 hours. Unbound sites were then blocked by adding a final concentration of 3 mg/ml carboxymethoxylamine (CMO) (Sigma C13408), before continuing shaking incubation for a further 1 hour. Beads were washed by centrifugation and resuspension in 100 mM TRIS-HCl pH 8.0 (Sigma T2694), before a final resuspension in PBS (GIBCO 14190)+0.05% Proclin-300 (Sigma 48912-U), at 5 mg/ml and storage at 4° C. until use.
(§2) The assay was performed in white 384 well plates (PerkinElmer, 6007290) using assay buffer 25 mM HEPES (Sigma-Aldrich, H0887), 100 mM NaCl (Sigma-Aldrich, S5150), 0.5% BSA (Sigma-Aldrich, A3294), 0.05% P20 (Cytiva Life Sciences, BR-1000-54), pH7.4 for all dilutions. […] Mouse IgG2a-conjugated acceptor beads described above were added at a final concentration of 20 ug/ml and incubated at room temperature for 30 minutes under subdued lighting. Streptavidin coated donor beads (PerkinElmer, 6760002) were added a final concentration of 20 ug/ml and incubated at room temperature for 60 minutes under subdued lighting. […] Data was normalised to a high control containing all assay components except Bicyclic peptide and fit to a four-parameter non-linear regression in GraphPad Prism 8.0.2 to generate an IC50 value.

[2] = molecular target: T2, human CD16a V176 variant, biotinylated (human, UniProt P08637 17-208, N-terminally biotinylated in-house); experiment: AlphaScreen competition vs mouse IgG2a
T2 construct: supplier is told for the AlphaScreen assay only; also called V Variant; FcγRIIIA V variant
T2 sequence (P08637 other isoform, or with tags, fused parts or gaps mutant limits assumed): as the sequence (P08637 17-208 limits assumed, change not shown) above, with F160V counted along it
Description: as §1, §2

[3] = molecular target: T3, CD16a/FCgRIIIa (F158 variant) on HEK293 cells, Terbium-labelled (UniProt P08637 17-254, limits assumed, Terbium donor dye); experiment: HTRF competition vs IgG-d2 on HEK293 cells
T3 construct: whole, on cells; also called cellular CD16a
T3 sequence (P08637 17-254 limits assumed, change not shown): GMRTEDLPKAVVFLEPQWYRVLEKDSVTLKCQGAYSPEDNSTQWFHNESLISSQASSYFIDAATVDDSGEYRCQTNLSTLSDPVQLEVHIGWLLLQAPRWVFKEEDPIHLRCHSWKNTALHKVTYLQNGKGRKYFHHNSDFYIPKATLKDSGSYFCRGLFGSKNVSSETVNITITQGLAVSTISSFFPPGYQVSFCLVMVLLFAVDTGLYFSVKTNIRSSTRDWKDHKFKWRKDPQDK
Description: Binding to cellular CD16a/FCgRIIIa (F158 variant) was determined through competition with IgG for binding to CD16a receptors expressed on HEK293 cells.
The experimental procedure followed the manufacturer's instructions detailed in the product information for the CD16 (FCγRIIIa) kit (Cisbio-6FR3APAG). […] Bicycle peptides were dispensed using Echo compound handler at a top concentration of 20 μM. The competing unlabeled antibodies and bicyclic peptides were added in a three-fold dilution series in Tag-lite buffer into PerkinElmer-ProxiPlate-384 Plus.
The HEK293 cell expressing Terbium-labelled CD16a were thawed and washed in PBS and added to the wells of PerkinElmer-ProxiPlate-384 Plus containing the competitor compounds. […] The data was plotted in Graph pad prism and IC50-values were determined to indicate unlabeled antibody or bicyclic peptide competition for cellular binding to the CD16a receptor.

[4] = molecular target: T1, human CD16a F176 variant, biotinylated; experiment: SPR
Description: (§3) The SPR analysis was run at 25° C. at a flow rate of 50 μl/min with 60 seconds association and dissociation between 60 and 200 seconds. Data were corrected for DMSO excluded volume effects. All data were double-referenced for blank injections and reference surface using standard processing procedures and data processing and kinetic fitting were performed using Scrubber software, version 2.0c (BioLogic Software). Data were fitted using simple 1:1 binding model allowing for mass transport effects where appropriate.
(§4) For analysis of peptide binding, a Biacore 8k+ instrument was used with a CM5 chip (Cytiva). All experiments were carried out at 25° C. Streptavidin was immobilized on all flow cells by standard amine coupling chemistry. The running buffer was HBS-N(Cytiva, 10 mM HEPES, 0.15 M NaCl, pH 7.4) and the flow rate was 10 μl/min. The carboxymethyl dextran surface was activated with a 1:1 ratio of 0.4 M 1-ethyl-3-(3-dimethylaminopropyl) carbodiimide hydrochloride (EDC)/0.1 M N-hydroxy succinimide (NHS) (Cytiva) for 420s. Streptavidin (ProSpec, cat no. PRO-791) was diluted to 0.2 mg/ml in 10 mM sodium acetate pH 4.5 and was injected onto the chip surface for 600 s. Residual activated groups were blocked with a 420 s injection of 1 M ethanolamine (pH 8.5). The final surface density was 2000-3000 RU. Biotinylated CD16a was diluted to 5 μg/ml in HBS-N and was captured on flow cell 2 only of the streptavidin chip at a flow rate of 10 μl/min to 1500-2500 RU. The buffer was then changed to PBS-P+(Cytiva) supplemented with 0.5-2% DMSO. […] The flow rate was 30 μl/min with 100 s association and 400 s dissociation. Data were corrected for DMSO volume exclusion effects. All data were double-referenced against blank injections and reference surface response using standard processing procedures. Data processing and kinetic fitting was performed using Biacore Insight Evaluation Software with Extended Screening and Characterization Extension (Cytiva). Data were fitted using steady state affinity 1:1 binding model to determine KD. Data were fitted using kinetic 1:1 binding model to determine kinetic constants where appropriate.

[5] = molecular target: T2, human CD16a V176 variant, biotinylated; experiment: SPR
Description: as §3, §4

[6] = molecular target: T4, human NKp46 on cells (CHO-K1/NKp46 cells; CD56+ NK cells of human PBMCs) (human, UniProt O76036 22-304); experiment: Kd,app, flow cytometry CHO-K1/NKp46
T4 construct: whole, on cells; also called NCR1; CD355
T4 sequence (O76036 22-304): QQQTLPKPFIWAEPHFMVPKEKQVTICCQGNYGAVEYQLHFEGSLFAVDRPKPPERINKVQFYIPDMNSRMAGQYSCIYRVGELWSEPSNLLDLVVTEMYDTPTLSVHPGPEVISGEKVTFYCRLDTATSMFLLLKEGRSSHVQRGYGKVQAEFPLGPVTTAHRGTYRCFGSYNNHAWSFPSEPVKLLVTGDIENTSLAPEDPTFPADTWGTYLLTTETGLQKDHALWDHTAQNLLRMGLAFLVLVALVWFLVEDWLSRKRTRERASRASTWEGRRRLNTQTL
Description: Plates were then incubated for 1 hour at room temperature in the dark. Post-incubation, the plates were centrifuged at 500 rpm for 5 minutes and supernatant discarded. Samples were then washed twice in 200 μL of 1× phosphate buffer saline (PBS; Gibco™ 10-010-023) at 500 rpm for 5 minutes. Cells were resuspended in 100 μL of PBS and transferred to a new 96-well V-bottom polypropylene plate (Greiner Bio-One 651201). Plates were centrifuged at 500 rpm for 5 minutes and supernatant discarded.
Preparation of samples for flow cytometry: Zombie Violet™ Fixable Viability Dye (BioLegend® 423113) was prepared as a 1:1000 dilution in PBS and 100 μL of viability dye was added to each well and incubated in the dark at 4° C. for 30 minutes. To ensure NKp46 expression, untreated CHO-K1/NKp46 cells were stained with either anti-human NKp46 or an isotype control. Antibody cocktails were prepared by diluting 1.5 μL of either, PE anti-human NKp46 (BioLegend® 331908; clone 9E2) or PE isotype control IgG1, K (BioLegend® 400112), per 100 μL of stain buffer (1×PBS supplemented with 2% FBS). Cells were resuspended in master mix cocktail (100 μL) and incubated at 4° C. for 30 minutes in the dark. Subsequently, cells were washed 3 times in 100 μL of stain buffer for 5 minutes at 500 rpm and supernatant was discarded. Cells resuspended in 200 μL of stain buffer were kept at 4° C. and in the dark until read by BD FACSCelesta™ flow cytometer.
The binding affinity of the bicyclic peptides were calculated using a four-parameter logistic regression using Prism GraphPad software.

Binder | IC50 [2] | IC50 [3] | Kd [4] | Kd [5] | other results
ACVGLEELGPCSDLCAK-NH2 (linker 2-11-15 via TBMT (inferred); not fully specified (residue 17); also: homodimer via shared N-(amine-PEG2)-N-bis(PEG3-azide) linker, homodimer of BCY13886; scaffold TBMT; also called CD16a fluorescent dimer) [BCY15916] | 0.113 µM | – | – | – | IC50 [1]: 0.0526 µM
Ac-CRWH[hPhe]SEPCGAWC-NH2 (linker 1-9-13 via TBMT(3); SMILES CC(=O)N[C@H]1CSCc2nc3nc(n2)CSC[C@H](NC(=O)[C@@H]2CCCN2C(=O)[C@H](CCC(=O)O)NC(=O)[C@H](CO)NC(=O)[C@H](CCc2ccccc2)NC(=O)[C@H](Cc2c[nH]cn2)NC(=O)[C@H](Cc2c[nH]c4ccccc24)NC(=O)[C@H](CCCNC(=N)N)NC1=O)C(=O)NCC(=O)N[C@@H](C)C(=O)N[C@@H](Cc1c[nH]c2ccccc12)C(=O)N[C@H](C(N)=O)CSC3, scaffold TBMT) [BCY21694] | – | 0.166 µM | – | – | –
ACRWSVEDPCGAWCA-NH2 (linker 2-10-14 via TBMT; also: scaffold TATA, TATB or TBMT, scaffold TBMT) [BCY14950] | – | 2.04 µM | – | – | –
ACRWSVEDPC[dA]AWCA-NH2 (linker 2-10-14 via TBMT (inferred), scaffold TBMT) [BCY14956] | – | 1.41 µM | 2.66 µM | 2.15 µM | –
ACRWHXSEPCGAWCA (CiRWH[HyP]SEPCiiGAWCiii, scaffold TBMT) [BCY20383] | – | 1.11 µM | 0.47 µM | 0.202 µM | –
ACPPTVYCHPLDCAK-NH2 (linker 2-8-13 via TATA (inferred); not fully specified (residue 15); also: homodimer via shared N-(amine-PEG2)-N-bis(PEG3-azide) linker, homodimer of BCY15685; scaffold TATA; also called CD16a fluorescent dimer) [BCY15915] | 0.0325 µM | – | – | – | IC50 [1]: 0.0278 µM
ACRWHFSEPC[dA]AWCA-NH2 (linker 2-10-14 via TBMT″ (inferred), scaffold TBMT) [BCY20392] | – | – | 0.825 µM | 0.385 µM | –
CRWH[hPhe]SEPCGAWC-NH2 (linker 1-9-13 via TBMT″, scaffold TBMT) [BCY21693] | – | 0.377 µM | – | – | –
ACDLTTHNCQWGICAK-NH2 (linker 2-9-14 via TATA; not fully specified (residue 16); also: homodimer via shared N-(amine-PEG2)-N-bis(PEG3-azide) linker, scaffold TATA) [BCY15921] | – | – | – | – | Kd [6]: 0.00148 µM
ACRWHXSEPCGAWCA (CiRWH[4MePhe]SEPCiiGAWCiii, scaffold TBMT) [BCY20380] | – | 0.898 µM | – | – | –
ACRWSVEDPCGAWCAK(Pent4ynoyl)-NH2 (linker 2-10-14 via TBMT (inferred), scaffold TBMT) [BCY13883] | 2.54 µM | – | – | 1.52 µM | –
ACNLQAPCMQTGKVCAK-NH2 (linker 2-8-15 via TATA (inferred); not fully specified (residue 17); also: AF488 on linker, homodimer of BCY15687; scaffold TATA) [BCY15922] | – | – | – | – | Kd [6]: 0.00148 µM
ACRWHXSEXCGAWCA (CiRWH[HPhe]SE[Aze]CiiGAWCiii, scaffold TBMT) [BCY21689] | – | 1.24 µM | – | – | –
ACRWSVEDPCGAWCAK-NH2 (linker 2-10-14 via TBMT (inferred); not fully specified (residue 16); also: homodimer via shared N-(amine-PEG2)-N-bis(PEG3-azide) linker, homodimer of BCY13883; scaffold TBMT; also called CD16a fluorescent dimer) [BCY15914] | 0.308 µM | – | – | – | IC50 [1]: 0.0511 µM
ACRWHFXEPCGAWCA (CiRWHF[HSer]EPCiiGAWCiii, scaffold TBMT) [BCY20388] | – | – | 2.98 µM | 1.07 µM | –
ACVGLEELGPCSDLCAK(Pent4ynoyl)-NH2 (linker 2-11-15 via TBMT (inferred), scaffold TBMT) [BCY13886] | 3.19 µM | – | 8.36 µM | 4.29 µM | IC50 [1]: 1.83 µM
ACRWHXSEPCGAWCA (CiRWH[Aze]SEPCiiGAWCiii, scaffold TBMT) [BCY20382] | – | 0.749 µM | 0.385 µM | – | –
ACPPTVYCHPLDCAK (C-terminal Lys(PYA), scaffold TATA) [BCY15685] | 3.48 µM | 7.56 µM | 7.37 µM | 1.85 µM | IC50 [1]: 11 µM
ACRWSVEXPCGAWCA (CiRWSVE[Gla]PCiiGAWCiii, scaffold TBMT) [BCY16608] | – | 1.8 µM | – | – | –

Reference: patent publication US20240108738A1 (Bicycle, published 2024)
